Assay results published in article PMC2661133.

Target: Anasazi bean lectin (lectin from seeds of Phaseolus vulgaris cv. Anasazi beans) (Phaseolus vulgaris)
Test: SEC; FPLC-gel filtration on Superdex 200 HR 10/30 calibrated with molecular-mass standards, 20 mM Tris-HCl buffer (pH 7.3); 60 kDa peak set against the 30 kDa band in SDS-PAGE

In the case of “Anasazi bean lectin (lectin from seeds of Phaseolus vulgaris cv. Anasazi beans) (natural protein)”, the stoichiometry N is reported as 2.
